# Measurements: the RNAGym collection of RNA variant scans (doi:10.1093/molbev/msab373)
# B1: Azoarcus group I ribozyme (parent)
# chain: GUGCCUUGCGCCGGGAAACCACGCAAGGGAUGGUGUCAAAUUCGGCGAAACCUAAGCGCCCGCCCGGGCGUAUGGCAACGCCGAGCCAAGCUUCGGCGCCUGCGCCGAUGAAGGUGUAGAGACUAGACGGCACCCACCUAAGGCAAACGCUAUGGUGAAGGCAUAGUCCAGGGAGUGGCGAAAGUCACACAAACCGG
# Variants of: B1
# Assay: reverse-splicing fitness (ratio to wild type); higher = more active; in vitro selection; Mg2+ level not given
# Method in brief: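 An in vitro group I ribozyme library with randomized positions was T7-transcribed and gel-purified. In triplicate, 10 pmol RNA in EPPS pH 7.5 was reacted with 50 pmoles of a 30-nt RNA substrate for 1 h at 37 °C across several added MgCl2 levels (1–48 mM), then stopped with EDTA. Products were reverse transcribed from a substrate-complementary primer, PCR-amplified and sequenced (HiSeq 4000). Fitness is a variant's read proportion after selection over that before, normalised to wild type.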
row,Variant,reverse-splicing fitness
1,GUGCCUUGCGCCGGGAAACCACGCAAGGGAUGGUGUCAAAUUCGGCGAAACCUAAGCGCCCGCCCGGGCGUAUGGCAACGCUGAGCCAAGCUUCGGCGCCUGCGCCGAUGGAGGUGUAGCGACUAGACGGCACCCACCUAAGGCCAACGGUAUGGUGAAGGCAUAGUCCAGGGAGUGGCGAAAGUCACACAAACCGG,0.00936
2,GUGCCUUGCGCCGGGAAACCACGCAAGGGAUGGUGUCAAAUUCGGCGAAACCUAAGCGCCCGCCCGGGCGUAUGGCAACGCUGAGCCAAGCUUCGGCGCCUGCGCCGAUGGAGGUGUAGCGACUAGACGGCACCCACCUAAGGCCAACGUUAUGGUGAAGGCAUAGUCCAGGGAGUGGCGAAAGUCACACAAACCGG,0.0145
3,GUGCCUUGCGCCGGGAAACCACGCAAGGGAUGGUGUCAAAUUCGGCGAAACCUAAGCGCCCGCCCGGGCGUAUGGCAACGCUGAGCCAAGCUUCGGCGCCUGCGCCGAUGGAGGUGUAGCGACUAGACGGCACCCACCUAAGGCCAACGAUAUGGUGAAGGCAUAGUCCAGGGAGCGGCGAAAGUCACACAAACCGG,0.00767
4,GUGCCUUGCGCCGGGAAACCACGCAAGGGAUGGUGUCAAAUUCGGCGAAACCUAAGCGCCCGCCCGGGCGUAUGGCAACGCUGAGCCAAGCUUCGGCGCCUGCGCCGAUGGAGGUGUAGCGACUAGACGGCACCCACCUAAGGCCAACGAUAUGGUGAAGGCAUAGUCCAGGGAGAGGCGAAAGUCACACAAACCGG,0.00938
5,GUGCCUUGCGCCGGGAAACCACGCAAGGGAUGGUGUCAAAUUCGGCGAAACCUAAGCGCCCGCCCGGGCGUAUGGCAACGCUGAGCCAAGCUUCGGCGCCUGCGCCGAUGGAGGUGUAGCGACUAGACGGCACCCACCUAAGGCCAACGAUAUGGUGAAGGCAUAGUCCAGGGAGGGGCGAAAGUCACACAAACCGG,0.0038
6,GUGCCUUGCGCCGGGAAACCACGCAAGGGAUGGUGUCAAAUUCGGCGAAACCUAAGCGCCCGCCCGGGCGUAUGGCAACGCUGAGCCAAGCUUCGGCGCCUGCGCCGAUGGAGGUGUAGCGACUAGACGGCACCCACCUAAGGCCAACGGUAUGGUGAAGGCAUAGUCUAGGGAGGGGCGAAAGUCACACAAACCGG,0.00424
7,GUGCCUUGCGCCGGGAAACCACGCAAGGGAUGGUGUCAAAUUCGGCGAAACCUAAGCGCCCGCCCGGGCGUAUGGCAACGCUGAGCCAAGCUUCGGCGCCUGCGCCGAUGGAGGUGUAGCGACUAGACGGCACCCACCUAAGGCCAACGGUAUGGUGAAGGCAUAGUCUAGGGAGCGGCGAAAGUCACACAAACCGG,0.0112
8,GUGCCUUGCGCCGGGAAACCACGCAAGGGAUGGUGUCAAAUUCGGCGAAACCUAAGCGCCCGCCCGGGCGUAUGGCAACGCUGAGCCAAGCUUCGGCGCCUGCGCCGAUGGAGGUGUAGCGACUAGACGGCACCCACCUAAGGCCAACGGUAUGGUGAAGGCAUAGUCUAGGGAGAGGCGAAAGUCACACAAACCGG,0.00787
9,GUGCCUUGCGCCGGGAAACCACGCAAGGGAUGGUGUCAAAUUCGGCGAAACCUAAGCGCCCGCCCGGGCGUAUGGCAACGCUGAGCCAAGCUUCGGCGCCUGCGCCGAUGGAGGUGUAGCGACUAGACGGCACCCACCUAAGGCCAACGGUAUGGUGAAGGCAUAGUCGAGGGAGCGGCGAAAGUCACACAAACCGG,0.004
10,GUGCCUUGCGCCGGGAAACCACGCAAGGGAUGGUGUCAAAUUCGGCGAAACCUAAGCGCCCGCCCGGGCGUAUGGCAACGCUGAGCCAAGCUUCGGCGCCUGCGCCGAUGGAGGUGUAGCGACUAGACGGCACCCACCUAAGGCCAACGGUAUGGUGAAGGCAUAGUCGAGGGAGGGGCGAAAGUCACACAAACCGG,0.00397
11,GUGCCUUGCGCCGGGAAACCACGCAAGGGAUGGUGUCAAAUUCGGCGAAACCUAAGCGCCCGCCCGGGCGUAUGGCAACGCUGAGCCAAGCUUCGGCGCCUGCGCCGAUGGAGGUGUAGCGACUAGACGGCACCCACCUAAGGCCAACGGUAUGGUGAAGGCAUAGUCGAGGGAGAGGCGAAAGUCACACAAACCGG,0.00761
12,GUGCCUUGCGCCGGGAAACCACGCAAGGGAUGGUGUCAAAUUCGGCGAAACCUAAGCGCCCGCCCGGGCGUAUGGCAACGCUGAGCCAAGCUUCGGCGCCUGCGCCGAUGGAGGUGUAGCGACUAGACGGCACCCACCUAAGGCCAACGAUAUGGUGAAGGCAUAGUCGAGGGAGUGGCGAAAGUCACACAAACCGG,0.00759
13,GUGCCUUGCGCCGGGAAACCACGCAAGGGAUGGUGUCAAAUUCGGCGAAACCUAAGCGCCCGCCCGGGCGUAUGGCAACGCUGAGCCAAGCUUCGGCGCCUGCGCCGAUGGAGGUGUAGCGACUAGACGGCACCCACCUAAGGCCAACGAUAUGGUGAAGGCAUAGUCUAGGGAGUGGCGAAAGUCACACAAACCGG,0.00924
14,GUGCCUUGCGCCGGGAAACCACGCAAGGGAUGGUGUCAAAUUCGGCGAAACCUAAGCGCCCGCCCGGGCGUAUGGCAACGCUGAGCCAAGCUUCGGCGCCUGCGCCGAUGGAGGUGUAGCGACUAGACGGCACCCACCUAAGGCCAACGAUAUGGUGAAGGCAUAGUCGAGGGAGCGGCGAAAGUCACACAAACCGG,0.00993
15,GUGCCUUGCGCCGGGAAACCACGCAAGGGAUGGUGUCAAAUUCGGCGAAACCUAAGCGCCCGCCCGGGCGUAUGGCAACGCUGAGCCAAGCUUCGGCGCCUGCGCCGAUGGAGGUGUAGCGACUAGACGGCACCCACCUAAGGCCAACGAUAUGGUGAAGGCAUAGUCGAGGGAGGGGCGAAAGUCACACAAACCGG,0.00451
